Assay results published in IntAct's records for PubMed 29892012.

B1: Synaptotagmin-16 (Homo sapiens), Q17RD7 (parent)
chain: MVLAMASQDVQNFFQPFSSWISRVYEALQQAGDMLSASLVNISKQDSKLSDKLDQDLDNIQIQETYFEDEEQDNDWSQEDANSLFLEVDHFSCCNSDLQDSAQNSSPSLSQHAKDSCSTMSQWPNWASDDRKLPHVLSSIAEEEHHLEKQRSGLQHGFDSQLPGTLETVNGKKQVNSFGDDEELSTSSDSDEEVIKQFEISVSRSQSFRSVTSEKGKQTGLEQKPKFSRSLLTHGEDGTEVSACEDLDGASQRRYSENLSYGEDDHIPAHSQSPCERGDAKHHGTSHQESSVVQSLRRQSTEGSLEMETAFNSRGFEDSYATDSSSMWSPEEQDRTNLQVPSGVSEPISKCGDLDVIFEYRAASQKLTVTIVRAQGLPDKDRSGVNSWQVHVVLLPGKKHRGRTNIQRGPNPVFREKVTFAKLEPRDVAACAVRFRLYAARKMTRERMMGEKLFYLSHLHPEGEMKVTLVLEPRSNISSGGSPLSPSAVSHSDSTSSTQSLSHGGAPELLVGLSYNATTGRLSVEMIKGSHFRNLAVNRAPDTYGKLFLLNSVGQEMSRCKTSIRRGQPNPVYKETFVFQVALFQLSDVTLMISVYNRRTMKRKEMIGWIALGQNSSGEEEQDHWEEMKETKGQQICRWHTLLES
B2: Synaptotagmin-16 (Homo sapiens), Q17RD7 (parent)
chain: B1 chain
partner: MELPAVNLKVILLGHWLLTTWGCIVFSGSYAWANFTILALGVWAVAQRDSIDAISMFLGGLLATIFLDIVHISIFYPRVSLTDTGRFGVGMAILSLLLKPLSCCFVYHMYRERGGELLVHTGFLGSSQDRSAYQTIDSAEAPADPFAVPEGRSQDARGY
B3: Palmitoyltransferase ZDHHC22 (Homo sapiens), Q8N966 (parent)
chain: MLALRLLNVVAPAYFLCISLVTFVLQLFLFLPSMREDPAAARLFSPALLHGALFLFLSANALGNYVLVIQNSPDDLGACQGASARKTPCPSPSTHFCRVCARVTLRHDHHCFFTGNCIGSRNMRNFVLFCLYTSLACLYSMVAGVAYISAVLSISFAHPLAFLTLLPTSISQFFSGAVLGSEMFVILMLYLWFAIGLACAGFCCHQLLLILRGQTRHQVRKGVAVRARPWRKNLQEVFGKRWLLGLLVPMFNVGSESSKQQDK
partner: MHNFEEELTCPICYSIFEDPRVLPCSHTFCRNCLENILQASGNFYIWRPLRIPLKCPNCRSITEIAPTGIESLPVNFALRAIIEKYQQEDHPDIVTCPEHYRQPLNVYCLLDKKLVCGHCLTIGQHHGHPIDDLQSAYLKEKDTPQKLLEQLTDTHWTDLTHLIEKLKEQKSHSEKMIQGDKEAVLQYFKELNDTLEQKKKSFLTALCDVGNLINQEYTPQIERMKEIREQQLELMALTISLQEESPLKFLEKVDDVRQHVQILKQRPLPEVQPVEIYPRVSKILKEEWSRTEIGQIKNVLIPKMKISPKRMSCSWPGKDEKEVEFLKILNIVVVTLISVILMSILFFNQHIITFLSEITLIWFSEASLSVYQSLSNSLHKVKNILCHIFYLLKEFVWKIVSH
B4: Enhancer of mRNA-decapping protein 3 (Homo sapiens), Q96F86 (parent)
chain: MATDWLGSIVSINCGDSLGVYQGRVSAVDQVSQTISLTRPFHNGVKCLVPEVTFRAGDITELKILEIPGPGDNQHFGDLHQTELGPSGAGCQVGINQNGTGKFVKKPASSSSAPQNIPKRTDVKSQDVAVSPQQQQCSKSYVDRHMESLSQSKSFRRRHNSWSSSSRHPNQATPKKSGLKNGQMKNKDDECFGDDIEEIPDTDFDFEGNLALFDKAAVFEEIDTYERRSGTRSRGIPNERPTRYRHDENILESEPIVYRRIIVPHNVSKEFCTDSGLVVPSISYELHKKLLSVAEKHGLTLERRLEMTGVCASQMALTLLGGPNRLNPKNVHQRPTVALLCGPHVKGAQGISCGRHLANHDVQVILFLPNFVKMLESITNELSLFSKTQGQQVSSLKDLPTSPVDLVINCLDCPENVFLRDQPWYKAAVAWANQNRAPVLSIDPPVHEVEQGIDAKWSLALGLPLPLGEHAGRIYLCDIGIPQQVFQEVGINYHSPFGCKFVIPLHSA
partner: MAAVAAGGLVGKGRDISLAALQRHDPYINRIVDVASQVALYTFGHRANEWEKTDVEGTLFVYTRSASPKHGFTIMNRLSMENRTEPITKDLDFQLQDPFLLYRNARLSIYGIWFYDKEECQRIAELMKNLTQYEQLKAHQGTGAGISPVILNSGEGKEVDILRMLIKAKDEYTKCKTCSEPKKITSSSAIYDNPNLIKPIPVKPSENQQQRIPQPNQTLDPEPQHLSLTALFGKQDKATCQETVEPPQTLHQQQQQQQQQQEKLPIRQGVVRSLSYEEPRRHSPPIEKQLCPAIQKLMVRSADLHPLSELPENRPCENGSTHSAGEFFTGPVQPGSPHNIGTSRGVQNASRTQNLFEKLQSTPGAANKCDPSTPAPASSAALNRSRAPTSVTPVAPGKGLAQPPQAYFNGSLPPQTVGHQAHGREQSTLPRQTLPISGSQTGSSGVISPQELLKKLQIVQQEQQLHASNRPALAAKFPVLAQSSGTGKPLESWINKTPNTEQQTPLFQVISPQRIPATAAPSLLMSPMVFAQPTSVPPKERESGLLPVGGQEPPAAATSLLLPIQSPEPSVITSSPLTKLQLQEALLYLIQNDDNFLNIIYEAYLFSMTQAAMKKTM
B5: Enhancer of mRNA-decapping protein 3 (Homo sapiens), Q96F86 (parent)
chain: B4 chain

Variants of: B1
Conditions: with praf1_human RABAC1, Q9UI14
Chain of praf1_human RABAC1, Q9UI14 (Q9UI14 whole entry): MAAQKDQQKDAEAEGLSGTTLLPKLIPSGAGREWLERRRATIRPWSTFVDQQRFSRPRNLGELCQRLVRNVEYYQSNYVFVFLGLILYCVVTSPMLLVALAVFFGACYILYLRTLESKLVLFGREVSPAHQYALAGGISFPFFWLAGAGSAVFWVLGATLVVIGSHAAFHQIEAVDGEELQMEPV

Row | Variant | effect of a mutation on the interaction
1 | R441W | with no effect

Variants of: B1
Conditions: with rtn4_human RTN4, Q9NQC3
Chain of rtn4_human RTN4, Q9NQC3 (Q9NQC3 whole entry): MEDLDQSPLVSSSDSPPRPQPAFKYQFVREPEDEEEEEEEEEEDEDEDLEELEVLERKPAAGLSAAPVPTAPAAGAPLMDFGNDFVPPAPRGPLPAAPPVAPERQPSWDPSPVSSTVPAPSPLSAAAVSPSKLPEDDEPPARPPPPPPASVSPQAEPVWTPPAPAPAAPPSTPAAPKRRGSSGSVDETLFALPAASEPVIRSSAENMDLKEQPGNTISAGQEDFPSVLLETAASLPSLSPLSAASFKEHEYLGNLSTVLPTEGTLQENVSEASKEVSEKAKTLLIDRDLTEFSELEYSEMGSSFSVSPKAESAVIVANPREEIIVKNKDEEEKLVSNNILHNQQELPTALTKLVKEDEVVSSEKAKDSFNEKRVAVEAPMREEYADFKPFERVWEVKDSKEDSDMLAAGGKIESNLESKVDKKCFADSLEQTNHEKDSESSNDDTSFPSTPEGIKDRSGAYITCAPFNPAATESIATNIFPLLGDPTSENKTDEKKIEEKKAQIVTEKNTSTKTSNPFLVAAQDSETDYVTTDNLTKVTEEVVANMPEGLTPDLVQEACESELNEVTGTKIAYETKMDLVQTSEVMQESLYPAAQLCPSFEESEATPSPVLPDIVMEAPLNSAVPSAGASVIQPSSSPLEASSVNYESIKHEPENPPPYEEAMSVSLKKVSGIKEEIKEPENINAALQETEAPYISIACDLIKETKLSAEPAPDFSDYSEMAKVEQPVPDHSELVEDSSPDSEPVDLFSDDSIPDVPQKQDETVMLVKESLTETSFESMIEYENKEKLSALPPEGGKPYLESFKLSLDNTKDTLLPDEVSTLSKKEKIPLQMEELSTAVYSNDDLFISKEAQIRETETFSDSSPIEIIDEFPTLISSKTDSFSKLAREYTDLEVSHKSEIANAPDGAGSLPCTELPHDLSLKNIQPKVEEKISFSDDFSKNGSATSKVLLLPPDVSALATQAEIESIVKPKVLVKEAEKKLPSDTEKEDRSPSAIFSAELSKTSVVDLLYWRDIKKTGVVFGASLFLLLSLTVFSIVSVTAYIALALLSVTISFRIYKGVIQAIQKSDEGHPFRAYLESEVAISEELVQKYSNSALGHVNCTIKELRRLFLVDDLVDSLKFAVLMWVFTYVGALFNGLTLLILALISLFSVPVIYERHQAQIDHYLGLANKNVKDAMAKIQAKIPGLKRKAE

Row | Variant | effect of a mutation on the interaction
2 | R441W | with no effect

Variants of: B2
Conditions: with atrap_human AGTRAP

Row | Variant | effect of a mutation on the interaction
3 | R441W | with no effect

Variants of: B3
Conditions: with tri59_human TRIM59, Q8IWR1

Row | Variant | effect of a mutation on the interaction
4 | L209F | with no effect

Variants of: B4
Conditions: with dcp1b_human DCP1B

Row | Variant | effect of a mutation on the interaction
5 | F213L | with no effect

Variants of: B5
Conditions: with ddx6_human DDX6, P26196
Chain of ddx6_human DDX6, P26196 (P26196 whole entry): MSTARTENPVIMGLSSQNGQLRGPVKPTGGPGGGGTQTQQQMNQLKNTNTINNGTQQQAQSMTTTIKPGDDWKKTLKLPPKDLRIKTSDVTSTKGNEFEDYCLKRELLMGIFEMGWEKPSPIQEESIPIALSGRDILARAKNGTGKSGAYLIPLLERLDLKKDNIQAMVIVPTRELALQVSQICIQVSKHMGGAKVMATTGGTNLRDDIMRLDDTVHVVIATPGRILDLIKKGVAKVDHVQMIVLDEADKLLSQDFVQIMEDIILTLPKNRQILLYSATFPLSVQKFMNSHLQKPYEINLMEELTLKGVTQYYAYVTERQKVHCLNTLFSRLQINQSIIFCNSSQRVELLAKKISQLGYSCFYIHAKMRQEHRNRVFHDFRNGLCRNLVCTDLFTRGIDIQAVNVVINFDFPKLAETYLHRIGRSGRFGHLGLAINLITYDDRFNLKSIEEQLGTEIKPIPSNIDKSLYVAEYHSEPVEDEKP

Row | Variant | effect of a mutation on the interaction
6 | F213L | disrupting interaction strength
